Among the data in publication PMC9825669 are stoichiometry N values, retold here.

Where “and” joins values, the source holds several entries; their conditions need not be identical. Equal values may be shown once.

For the assay, the target named is LtMCC α6β6 dodecamer (L. tarentolae (endogenous in L. tarentolae TATII/UC cells)). The experiment in a line: filament lengths counted on cryoEM micrographs.

For orientation: stoichiometry N means the number of molecules, sites or subunits per partner or assembly. Take LtMCC α6β6 dodecamer (complex): the stoichiometry N is 4 and 6.
